# Where a chain is given by its changes, count along the chain named.
# Legend:
# His-BFL-1ΔC = target: T1, His-BFL-1ΔC (Homo sapiens, UniProt Q16548); test: Streptavidin pulldown from recombinant protein mixture, BFL-1; type: binding; conditions: equimolar mixture of recombinant MCL-1, BCL-XL, BFL-1 and biotinylated SAHB, silver stain
# T1 construct: Recombinant anti-apoptotic BFL-1ΔC (aa 1-151) and its cysteine to serine mutants were cloned into PET17b; made in house; host or cells: Escherichia coli LOBSTR BL21(DE3)
# T1 sequence (Q16548 1-151): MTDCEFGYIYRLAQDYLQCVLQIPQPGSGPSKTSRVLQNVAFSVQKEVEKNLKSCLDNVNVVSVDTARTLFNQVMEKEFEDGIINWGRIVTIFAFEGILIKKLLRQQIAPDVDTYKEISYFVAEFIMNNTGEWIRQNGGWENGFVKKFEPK
# Description: WT His-BFL-1ΔC, BCL-XLΔC (tagless), and GST-MCL-1ΔNΔC (1 μM each) were combined and incubated with 3 mM DTT in PBS for thirty minutes at room temperature. Mixtures were treated with vehicle or the indicated C-terminally biotinylated NOXA SAHB (1 μM) for four hours and were then added to 30 μL PBS-washed high-capacity streptavidin (SA) agarose beads (Thermo Fisher Pierce) and incubated with rotation at room temperature for two hours. The beads were then washed three times with NP-40 lysis buffer (1% NP-40, 50 mM Tris pH 8, 100 mM NaCl, 2.5 mM MgCl2) and three times with PBS. To elute bound protein, beads were boiled for ten minutes with 10% SDS containing 10 mg/mL biotin. After elution, samples were boiled with 3×LDS and 2M DTT for twenty minutes. Gel electrophoresis using a 12% Bis-Tris gel was conducted on inputs (2%) and eluates (5 μL) and gels were developed using the Pierce silver staining kit (Thermo Fisher).
# [1] = target: T2, HA-BFL-1ΔC C4S/C19S / tBID (Homo sapiens, UniProt Q16548, C19S/C4S); test: BFL-1/BH3 complex disruption: competition with tBID in 293T lysates; type: binding; conditions: anti-HA immunoprecipitation
# T2 construct: Recombinant anti-apoptotic BFL-1ΔC (aa 1-151) and its cysteine to serine mutants were cloned into PET17b; expressed in transfected cells; host or cells: 293T (lysate)
# T2 sequence (Q16548 1-151 C4S/C19S): T1 sequence (Q16548 1-151) with C4S, C19S
# Description: To evaluate the capacity of biotinylated SAHBs to compete with tBID for interactions with BFL-1 and MCL-1, 293T cells were transfected with either HA-BFL-1ΔC C4S/C19S or FLAG-MCL-1 in the p3XFLAG-CMV-10 vector (Sigma) as above. After 24 hr, cells were trypsinized, washed with PBS, lysed in 1% CHAPS buffer, and the supernatant collected for protein concentration determination by BCA kit. Lysate samples (0.5 mg) were incubated with 0.25 μM recombinant tBID (R&D Systems) and 5 μM biotinylated NOXA SAHBs for 6 h at RT. The mixtures were then subjected to HA or FLAG immunoprecipitation, followed by western analysis using 1:1000 dilutions of HA (Sigma Aldrich, #12CA5), FLAG (Sigma-Aldrich, F7425), and BID (Santa Cruz sc-11423) antibodies.
# native BFL-1 = target: T3, native BFL-1 (Homo sapiens, UniProt Q16548); test: BFL-1 targeting in U937 lysates (streptavidin pulldown, BFL-1 western); type: binding; conditions: biotinylated SAHB
# T3 construct: endogenous in cells; host or cells: A375P melanoma cells (A10); U937 AML cells (A12), lysates
# T3 sequence (Q16548 1-175): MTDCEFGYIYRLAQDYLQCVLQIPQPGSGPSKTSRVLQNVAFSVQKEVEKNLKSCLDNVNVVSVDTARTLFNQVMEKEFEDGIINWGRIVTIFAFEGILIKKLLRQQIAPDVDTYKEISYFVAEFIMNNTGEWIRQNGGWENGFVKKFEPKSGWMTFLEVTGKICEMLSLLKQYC
# Description: We confirmed that both of our lead constructs could covalently crosslink to full-length BFL-1 protein, which bears a C-terminal helix that could potentially compete with D-NA-NOXA SAHBs for interaction at the canonical BH3-binding pocket in cancer cells. We generated recombinant full-length BFL-1 and expressed HA-tagged full-length BFL-1 in 293T cells, and then conducted crosslinking analyses in vitro and in treated cells, respectively.
# Cultured A375P and U937 cells were trypsinized or harvested, respectively, washed with PBS, and lysed by incubating with 1% CHAPS lysis buffer (1% CHAPS, 150 mM NaCl, 50 mM Tris pH 7.4, 100 μM DTT). The protein concentrations of the soluble fraction were measured using a BCA kit according to the manufacturer's instructions (Thermo Scientific). Lysate samples (1 mg) were incubated with vehicle or C-terminally biotinylated NOXA SAHBs (30 μM) overnight in 1% CHAPS lysis buffer at 4° C. Biotin capture was accomplished by incubating the mixture with high-capacity SA agarose (Thermo Scientific) for 2 hours at 4° C., followed by centrifugation and washing the pelleted beads three times with lysis buffer (1 mL). Bead-bound proteins were eluted by boiling in 10% SDS containing 10 mg/mL biotin for 10 minutes and then subjected to electrophoresis and western blotting using BFL-1 (Abcam, #125259) and MCL-1 (Rockland #600-401-394S) antibodies.
# [2] = target: T4, BFL-1ΔC C4S/C19S / FITC-BID BH3 (Homo sapiens, UniProt Q16548, C19S/C4S); test: Competitive fluorescence polarization binding assay, BFL-1ΔC C4S/C19S; conditions: fluorescence polarization competition
# T4 construct: Recombinant anti-apoptotic BFL-1ΔC (aa 1-151) and its cysteine to serine mutants were cloned into PET17b; made in house; host or cells: Escherichia coli LOBSTR BL21(DE3)
# T4 sequence (Q16548 1-151 C4S/C19S): T1 sequence (Q16548 1-151) with C4S, C19S
# Description: Fluorescence polarization (FP) assays were performed as previously described (Pitter et al., 2008 (supra)). Briefly, direct binding curves were first generated by FITC-BID BH3 (25 nM) with serial dilutions of anti-apoptotic protein, and FP was measured at 5 min on a SpectraMax M5 microplate reader (Molecular Devices). For competition assays, a serial dilution of acetylated or warhead-bearing NOXA SAHB was added to the indicated recombinant protein at ˜EC75 concentration, as determined by the direct binding assay. FITC-BID BH3 (25 nM) was then added and fluorescence polarization was measured at equilibrium. IC50 values were calculated by nonlinear regression analysis of competitive binding curves using PRISM software (GraphPad).
substance,measurement,setting,value
JAT8LREFGDXLNFRQ [D-NA-NOXA-15 R31E],BFL-1 binding / pull down,His-BFL-1ΔC,striking competitive advantage for BFL-1 targeting over its acetylated counterpart
same,competition with tBID for HA-BFL-1ΔC C4S/C19S interaction,[1],effectively competes with tBID
same,targeting of native BFL-1,native BFL-1,more effective binder of native BFL-1 protein between the two constructs
same,disruption of BFL-1ΔC C4S/C19S / FITC-BID BH3 interaction,[2],displays the ability to disrupt the interaction

# Reference: US12466853B2, “Selective targeting of apoptosis proteins by structurally-stabilized and/or cysteine-reactive NOXA peptides” (priority 2017, dated 2025)
